The text below walks through data of US11814435B2, “Therapeutic antibodies and their uses” (PFIZER INC., priority 2015, dated 2023).

The chains are these.
B1: h2B4-VH-wt VL_TK: anti-CD3 antibody (antibody, V domains shown)
VH: EVQLVESGGGLVQPGGSLRLSCAASGFTFSDYYMTWVRQAPGKGLEWVAFIRNRARGYTSDHNASVKGRFTISRDNAKNSLYLQMNSLRAEDTAVYYCARDRPSYYVLDYWGQGTTVTVSS
VL: DIVMTQSPDSLAVSLGERATINCKSSQSLFNVRSRKNYLAWYQQKPGQPPKLLISWASTRESGVPDRFSGSGSGTDFTLTISSLQAEDVAVYYCKQSYDLFTFGSGTKLEIK
B2: h2B4-VH-hnps VL_TK: anti-CD3 antibody (antibody, V domains shown)
VH: EVQLVESGGGLVQPGGSLRLSCAASGFTFSDYYMTWVRQAPGKGLEWVAFIRNRARGYTSDHNPSVKGRFTISRDNAKNSLYLQMNSLRAEDTAVYYCARDRPSYYVLDYWGQGTTVTVSS
VL: DIVMTQSPDSLAVSLGERATINCKSSQSLFNVRSRKNYLAWYQQKPGQPPKLLISWASTRESGVPDRFSGSGSGTDFTLTISSLQAEDVAVYYCKQSYDLFTFGSGTKLEIK
B3: h25A8-C8_Ep (antibody, V domains shown)
VH: EVQLVESGGGLVKPGGSLRLSCAASGFTFNTYAMNWVRQAPGKGLEWVGRIRSKINNYATYYAESVKGRFTISRDDSKNTLYLQMNSLKTEDTAVYYCVRHETLRSGISWFASWGQGTLVTVSS
VL: QAVVTQEPSLTVSPGGTVTLTCRSSTGAVTTSNYANWVQQKPGQAPRGLIGGTNTRAPGTPARFSGSLLGGKAALTLSGAQPEDEAEYYCVLWYNNHWVFGGGTKLTVL
modifications: left off: another chain or arm of the molecule; a dimerising Fc or GST; small tags and cut ends
B4: h25A8-B13_Ep: anti-EpCam/CD3 bispecific, human IgG2dA, anti-CD3 arm h25A8-B13 (antibody, V domains shown)
VH: EVQLVESGGGLVKPGGSLRLSCAASGFTFSTYAMNWVRQAPGKGLEWVGRIRSKINNYATYYAESVKGRFTISRDDSKNTLYLQMNSLKTEDTAVYYCVRHETLRSGISWFASWGQGTLVTVSS
VL: QAVVTQEPSLTVSPGGTVTLTCRTSTGAVTTSNYANWVQQKPGQAPRGLIGGTNTRAPGTPARFSGSLLGGKAALTLSGAQPEDEAEYYCVLWYNNHWVFGGGTKLTVL
modifications: left off: another chain or arm of the molecule; a dimerising Fc or GST; small tags and cut ends
notes: anti-EpCam/CD3 bispecific, human IgG2dA, anti-CD3 arm h25A8-B13
B5: h25A8-B12_Ep: anti-EpCam/CD3 bispecific, human IgG2dA, anti-CD3 arm h25A8-B12 (antibody, V domains shown)
VH: EVQLVESGGGLVKPGGSLRLSCAASGFTFSTYAMNWVRQAPGKGLEWVGRIRSKINNYATYYAESVKGRFTISRDDSKNTLYLQMNSLKTEDTAVYYCVRHETLRSGISWFASWGQGTLVTVSS
VL: QAVVTQEPSLTVSPGGTVTLTCRASTGAVTTSNYANWVQQKPGQAPRGLIGGTNTRAPGTPARFSGSLLGGKAALTLSGAQPEDEAEYYCVLWYNNHWVFGGGTKLTVL
modifications: left off: another chain or arm of the molecule; a dimerising Fc or GST; small tags and cut ends
notes: anti-EpCam/CD3 bispecific, human IgG2dA, anti-CD3 arm h25A8-B12
B6: h25A8-B5_Ep (antibody, V domains shown)
VH: EVQLVESGGGLVKPGGSLRLSCAASGFTFSTYAMNWVRQAPGKGLEWVGRIRSKINNYATYYAESVKGRFTISRDDSKNTLYLQMNSLKTEDTAVYYCVRHETLRSGISWFASWGQGTLVTVSS
VL: QAVVTQEPSLTVSPGGTVTLTCRSSTGAVTTSNYANWVQQKPGQAPRGLIGGTNTRAPGTPARFSGSLLGGKAALTLSGAQPEDEAEYYCVLWYNNYWVFGGGTKLTVL
modifications: left off: another chain or arm of the molecule; a dimerising Fc or GST; small tags and cut ends
B7: h25A8-B8_Ep (antibody, V domains shown)
VH: EVQLVESGGGLVKPGGSLRLSCAASGFTFSTYAMNWVRQAPGKGLEWVGRIRSKINNYATYYAESVKGRFTISRDDSKNTLYLQMNSLKTEDTAVYYCVRHETLRSGISWFASWGQGTLVTVSS
VL: QAVVTQEPSLTVSPGGTVTLTCRSSTGAVTTSNYANWVQQKPGQAPRGLIGGTNTRAPGTPARFSGSLLGGKAALTLSGAQPEDEAEYYCVLWYNNHWVFGGGTKLTVL
modifications: left off: another chain or arm of the molecule; a dimerising Fc or GST; small tags and cut ends
B8: h2B4-yaesTK_Ep: anti-EpCam/CD3 bispecific, human IgG2dA, anti-CD3 arm h2B4-yaesTK (h2B4-VH-yaes VL_TK) (antibody, V domains shown)
VH: EVQLVESGGGLVQPGGSLRLSCAASGFTFSDYYMTWVRQAPGKGLEWVAFIRNRARGYTSDYAESVKGRFTISRDNAKNSLYLQMNSLRAEDTAVYYCARDRPSYYVLDYWGQGTTVTVSS
VL: DIVMTQSPDSLAVSLGERATINCKSSQSLFNVRSRKNYLAWYQQKPGQPPKLLISWASTRESGVPDRFSGSGSGTDFTLTISSLQAEDVAVYYCKQSYDLFTFGSGTKLEIK
modifications: left off: another chain or arm of the molecule; a dimerising Fc or GST; small tags and cut ends
B9: h2B4-1d_Ep: anti-EpCam/CD3 bispecific, human IgG2dA, anti-CD3 arm h2B4-1d (h2B4) (antibody, V domains shown)
VH: EVQLVESGGGLVQPGGSLRLSCAASGFTFSDYYMTWVRQAPGKGLEWVAFIRNRARGYTSDHNASVKGRFTISRDNAKNSLYLQMNSLRAEDTAVYYCARDRPSYYVLDYWGQGTTVTVSS
VL: DIVMTQSPDSLAVSLGERATINCTSSQSLFNVRSRKNYLAWYQQKPGQPPKLLISWASTRESGVPDRFSGSGSGTDFTLTISSLQAEDVAVYYCKQSYDLFTFGSGTKLEIK
modifications: left off: another chain or arm of the molecule; a dimerising Fc or GST; small tags and cut ends
B10: h2B4-TK_Ep: anti-EpCam/CD3 bispecific, human IgG2dA, anti-CD3 arm h2B4-TK (h2B4-VH-wt VL_TK) (antibody, V domains shown)
VH: EVQLVESGGGLVQPGGSLRLSCAASGFTFSDYYMTWVRQAPGKGLEWVAFIRNRARGYTSDHNASVKGRFTISRDNAKNSLYLQMNSLRAEDTAVYYCARDRPSYYVLDYWGQGTTVTVSS
VL: DIVMTQSPDSLAVSLGERATINCKSSQSLFNVRSRKNYLAWYQQKPGQPPKLLISWASTRESGVPDRFSGSGSGTDFTLTISSLQAEDVAVYYCKQSYDLFTFGSGTKLEIK
modifications: left off: another chain or arm of the molecule; a dimerising Fc or GST; small tags and cut ends
B11: h2B4-hnpsTK_Ep: anti-EpCam/CD3 bispecific, human IgG2dA, anti-CD3 arm h2B4-hnpsTK (h2B4-VH-hnps VL_TK) (antibody, V domains shown)
VH: EVQLVESGGGLVQPGGSLRLSCAASGFTFSDYYMTWVRQAPGKGLEWVAFIRNRARGYTSDHNPSVKGRFTISRDNAKNSLYLQMNSLRAEDTAVYYCARDRPSYYVLDYWGQGTTVTVSS
VL: DIVMTQSPDSLAVSLGERATINCKSSQSLFNVRSRKNYLAWYQQKPGQPPKLLISWASTRESGVPDRFSGSGSGTDFTLTISSLQAEDVAVYYCKQSYDLFTFGSGTKLEIK
modifications: left off: another chain or arm of the molecule; a dimerising Fc or GST; small tags and cut ends

Sequence of CD3 (P07766 23-126 limits assumed): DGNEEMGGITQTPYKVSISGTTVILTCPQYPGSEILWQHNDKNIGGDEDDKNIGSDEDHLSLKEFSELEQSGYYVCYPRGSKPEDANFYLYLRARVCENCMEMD
Sequence of CD3 (P04234 22-105 partner limits assumed): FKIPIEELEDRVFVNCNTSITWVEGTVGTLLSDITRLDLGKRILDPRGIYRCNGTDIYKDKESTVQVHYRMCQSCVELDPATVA
Sequence of hCD3 (human CD3) (P07766 23-126 limits assumed): as the sequence (P07766 23-126 limits assumed) above
Sequence of hCD3 (human CD3) (P04234 22-105 partner limits assumed): as the sequence (P04234 22-105 partner limits assumed) above

In one test the target is hCD3 (human CD3) (Homo sapiens, UniProt P07766). Put plainly: Kinetics and affinity of hCD3/human IgG interactions by SPR (Bio-Rad Proteon XPR36). Type of test: binding. To be noted: 37° C. How it is done:
All experiments were performed on a Bio-Rad Proteon XPR36 surface Plasmon resonance biosensor (Bio-Rad, Hercules, Calif.). An array of anti-CD3 antibodies was prepared using an amine-coupling method on a Bio-Rad GLC Sensor Chip similar to that described in Abdiche, et al., Anal. Biochem. 411, 139-151 (2011). The analysis temperature for the immobilization was 25° C. and the running buffer was HBS-T+(10 mM HEPES, 150 mM NaCl, 0.05% Tween-20, pH 7.4). Channels were activated in the analyte (horizontal) direction by injecting a mixture of 1 mM ECD and 0.25 mM NHS for 3 minutes at a flow rate of 30 μL/min. IgGs were immobilized on the activated spots by injecting them in the ligand (vertical) direction at 20 μg/mL in 10 mM Acetate pH 4.5 buffer for 1.5 minutes at […]. The activated surfaces were blocked by injecting 1M ethanolamine, pH 8.5 in the analyte direction for 3 minutes at 30 μL/min.
The analysis temperature for the hCD3 binding analysis was 37° C. or 25° C. in a running buffer of HBS-T+, supplemented with 1 mg/mL BSA. A kinetic titration method was employed for the interaction analysis as described in Abdiche, et al. The hCD3 (human CD3) analyte was injected in the analyte direction using a series of injections from low to high concentration. The concentrations used were 0.08 nM, 0.4 nM, 2 nM, 10 nM and 50 nM (a 5-membered series, with a 5-fold dilution factor and top concentration of 50 nM). The association time for a given analyte dilution was two minutes. Immediately after the 50 nM hCD3 injection, dissociation was monitored for 2 hours. Prior to the hCD3 analyte injections, buffer was injected 5 times using the same association and dissociation times at the hCD3 analyte cycles to prepare a buffer blank sensorgram for double-referencing purposes (double referencing as described in Myszka, J. Mol. Recognit. 12, 279-284 (1999).
The sensorgrams were double-referenced and fit to a 1:1 Langmuir with mass transport kinetic titration model in BIAevaluation Software version 4.1.1 (GE Lifesciences, Piscataway, N.J.).
(Surface plasmon resonance follows binding to a sensor surface in real time, without labels.)
As for B1, the “ka huCD3ed @37° C.” value worked out at 380000 M⁻¹ s⁻¹ and the “kd huCD3ed @37° C.” value worked out at 0.014 s⁻¹.
B2: the “ka huCD3ed @37° C.” value came to 390000 M⁻¹ s⁻¹ and the “kd huCD3ed @37° C.” value was found to be 0.016 s⁻¹.

A further test addresses CD3 (Homo sapiens, UniProt P07766). Put plainly: Biacore kinetics of anti-CD3 hIgG2dA bispecifics at 37° C. The test is classed as binding.
Details: not given
Turning to B3, the Kd – broadly, the free concentration of one partner at which half of the binding sites on the other are occupied at equilibrium, for simple one-to-one binding – worked out at 25.1 nM; the ka stood at 1.2e+06 M⁻¹ s⁻¹; the kd worked out at 0.0301 s⁻¹.
With B4, binding was put at a Kd of 18.3 nM, the ka was found to be 1.2e+06 M⁻¹ s⁻¹ and the kd came out at 0.0219 s⁻¹.
As for B5, the Kd worked out at 21 nM, the ka was determined as 1.15e+06 M⁻¹ s⁻¹ and the kd is 0.0241 s⁻¹.
For the molecule B6, binding was characterised by a dissociation constant (Kd) of 45 nM, the ka was 1.29e+06 M⁻¹ s⁻¹ and the kd stood at 0.0581 s⁻¹.
With B7, the Kd was 18.7 nM, the ka came to 1.19e+06 M⁻¹ s⁻¹ and the kd was determined as 0.0222 s⁻¹.
Regarding B8, the Kd was 54.4 nM, the ka came out at 474000 M⁻¹ s⁻¹ and the kd amounted to 0.0258 s⁻¹.
On to B9, for which the Kd turned out to be 40.4 nM, the ka was found to be 586000 M⁻¹ s⁻¹ and the kd amounted to 0.0237 s⁻¹.
B10 had an equilibrium dissociation constant (Kd) of 31 nM, a ka of 687000 M⁻¹ s⁻¹ and a kd of 0.0213 s⁻¹.
On to B11, for which the Kd came to 31.2 nM, the ka came out at 754000 M⁻¹ s⁻¹ and the kd was found to be 0.0235 s⁻¹.
